Key:
[1] = biological target: dsRed-tagged RetGC1 (human) (UniProt Q02846); experiment: ratio of GFP and dsRed tag fluorescence in co-transfected cells
R838S RetGC1 (human) = R838S RetGC1 (human) (UniProt Q02846); experiment: co-localisation of GCAP1-GFP with RetGC1 in co-transfected cells
[2] = biological target: wild type recombinant human RetGC1 (human) (UniProt Q02846); experiment: as above

stoichiometry N (GCAP1 per RetGC1) [1]: 0.86
stoichiometry N ([1]; scale: molar ratio between the two proteins at saturation): 1.01
cell:nucleus GCAP1-GFP fluorescence intensity ratio (R838S RetGC1 (human)): 9.3
cell:nucleus GCAP1-GFP fluorescence intensity ratio [2]: 10.6
Substance: GFP-tagged bovine GCAP1 (from UniProt P46065 1-205) (natural protein)
